Drawing on the RNAGym collection of RNA variant scans (doi:10.7554/elife.90254), this text covers self-cleavage for 167 variants.

First the molecules themselves.
B1: OR4K15 (parent)
chain: GUUAACGGUCAUAGGCCAUGGAAACUAGGAGCACCAUUUCGCUGCCAGUGAAGAAAUGAACAAAGAAAAUCUGGGCCAGGCAGGCAUCAAAAGAAAUAGUCUUGCGCUCAACCAGAAAGUCUGUAAUCAUUUUAAGGGUA

In this series the parent is B1. The experiment in a line: self-cleavage, relative activity (ratio to wild type); higher = more cleavage; in vitro, sequencing; the parent is a self-cleaving ribozyme.
As to U100G U103C, the self-cleavage was 0.09.
Next, U97C G136U: 1.55.
To A96G U124A belongs 0.94; to A94G U131C, 0.66; to A94G U131A, 0.74.
Next, A96G A129G: 1.11; A96G A129U: 1.08.
Regarding A95C A140G, the self-cleavage is 0.98.
Next, U97C U108C: 0.04.
Turning to U97C U108A, the self-cleavage worked out at 0.
A95C U124C: the self-cleavage was 0.32.
On to A92G C113U, for which the self-cleavage turned out to be 0.14.
To A98G G138U belongs 0.6; to A95G U132C, 2.35.
To A95G U131C belongs 1.46; to U97A A118G, 1.01; to A98U U100C, 2.47.
C101A A118G: the self-cleavage stood at 0.08.
Next, U97C A114U: 0.1; U97C A116U: 0.11; U97C A116G: 0.77.
Next, U100C A129G: 2.22; U100C A129C: 1.8; U100A A114U: 0.01.
Turning to U100A U108C, the self-cleavage was 0.03.
To U102A A116G belongs 0.18; to A98U G104A, 0.12.
Next, A92U A96G: 1.85; U97C U122A: 1.65; U97C U122G: 2.57.
To A95G U130C belongs 1.89; to A96G G115A, 0.07; to U97A U108A, 0.03.
U97A U108C: the self-cleavage is 0.01.
Next, A95U A117U: 0.55.
To A95G C105A belongs 0.09.
To U97C U131C belongs 0.72; to A98G C109A, 0.03; to U97C C113A, 0.04.
On to A95U A126G, for which the self-cleavage was 1.55.
Next, A95G G137A: 0.66.
To A95G G137U belongs 2.07.
Next, U97A A126U: 1.01; A98G U131C: 0.49; A94G C107G: 0.01.
Regarding U102C A118U, the self-cleavage was found to be 1.08.
In the case of U102C A118G, the self-cleavage was 1.31.
Next, U97G U108C: 0; A98G U132A: 0.41; U100A U139A: 1.29.
To U100C U124A belongs 2.17.
To A92U A94G belongs 1.76; to U102A A126G, 0.43; to A98U A116U, 0.97.
With G93A U102A, the self-cleavage was 2.2.
To A95U A118U belongs 0.6; to A95U A118G, 1.41.
To U100C U132G belongs 2.82.
To U100C U132A belongs 1.03.
Regarding A96U U108C, the self-cleavage worked out at 0.
To G99A G136A belongs 0.91; to A94U A135U, 1.75.
Regarding A94C U131C, the self-cleavage is 0.24.
To U97G U103C belongs 0.69; to A98G U130C, 0.41.
To A96C U122A belongs 0.42; to A94G U127G, 1.87; to A94G U127A, 2.55.
To A94G U127C belongs 1.04.
Turning to A96G U108A, the self-cleavage was found to be 0.02.
To A96G U108C belongs 0.01; to U100C G136A, 2.45.
Next, A94U U130C: 1.01; A94C A126G: 0.79; U102A A135G: 1.02.
Next, U100A A117G: 1.14; A96G U132A: 1.37.
For A94G U133C, the self-cleavage is 2.11.
To U102A A118G belongs 0.84; to U97C U124C, 0.17.
For U100C U102A, the self-cleavage turned out to be 2.36.
Next, A96G: 1.37; A96C: 0.82; A96U: 1.88.
To C101G U120C belongs 0.03; to U100A C105U, 0.03.
For the variant A92G U108G, the self-cleavage was determined as 0.02.
Next, U100C A126U: 0.32.
Next, A94G A135G: 0.43.
Next, A96G A135G: 1.91; A96G A135U: 2.17; A95C G137U: 1.17.
Consider A92G A135G, for which the self-cleavage came to 1.48.
On to A96G A118G, for which the self-cleavage came out at 1.4.
Next, A98U A117G: 1.63.
With A92G A140G, the self-cleavage was found to be 1.69.
To A96U U139C belongs 1.15.
Next, C101A U124C: 0.08.
On to A92U U132C, for which the self-cleavage is 0.8.
Next, A92U U120C: 1.
To A94C U103C belongs 0.38; to U100C U108A, 0.02; to A94U A117G, 1.95.
To A94U A117U belongs 0.82; to A92U A117G, 2.08.
For the variant U102C A117G, the self-cleavage worked out at 2.72.
To U102C A117U belongs 0.83.
Next, A98U A135G: 2.4.
In the case of A92U U127A, the self-cleavage was 1.77.
To A95C A116G belongs 0.74; to A96G A134G, 1.81.
To A92G U133C belongs 1.59; to A95U U103A, 0.6.
Next, A95G A116G: 1.88; A95G A116U: 0.45.
In the case of A96U A135C, the self-cleavage is 1.11.
Next, A96U A135U: 0.78; A96U A135G: 1.39; A94G A134G: 1.03.
Next, A96G A114U: 0.07; A95G C109A: 0.78.
Consider A98G U120C, for which the self-cleavage worked out at 0.23.
To U100C A117U belongs 1.45.
Next, U100C A117G: 2.56; A94U U120C: 1.1; U100C A111C: 0.01.
Next, U100C A111U: 0.18; A92G U130C: 0.3; A96G A110G: 0.12.
As for A96G A110U, the self-cleavage stood at 1.53.
Next, G99U U103C: 0.15; A96G C113U: 0.06.
Next, A94G A125G: 0.75.
Next, A96G U139C: 1.42.
Take U102A U120C: the self-cleavage amounted to 0.37.
Next, U102A U120A: 1.01; A96U A114G: 0.85.
To A94G U122C belongs 1.21; to A96U U120C, 1.17.
Next, A98G A125U: 0.84; U97A U103C: 1.63.
With U97A U103A, the self-cleavage came out at 0.18.
As for A96U A98G, the self-cleavage stood at 1.31.
To A96G G106A belongs 0.01.
As to A92U C112U, the self-cleavage came to 0.01.
To G93A U108A belongs 0.02; to U102A U103C, 0.12.
Regarding U102A A125G, the self-cleavage turned out to be 0.42.
To A92G U132C belongs 1.35; to A96U U132C, 1.95; to A96G U120A, 2.74.
To A96G U120C belongs 1.14; to U97C A140U, 1.02; to A98G A117U, 0.3.
On to A94U A96G, for which the self-cleavage came out at 1.29.
As to A98C U127C, the self-cleavage was found to be 1.94.
Take A98C U100C: the self-cleavage worked out at 2.44.
Next, A94G U97A: 2.02; A96G A140U: 1.93; C101A A117G: 0.13.
Next, A98U A114G: 0.5.
In the case of A98U A114U, the self-cleavage was 0.12.
As to A96U U127A, the self-cleavage stood at 2.6.
Next, A92G U131A: 1.33; U102A C107U: 0.01; A98U U131A: 0.49.
To A95G G99A belongs 1.52.
